Measured values published in patent US20200317817A1 (XOMA US, published 2020).

T1: human PTH1R overexpressed on CHO cells (human, UniProt Q03431 27-593)
T1 sequence (looked up): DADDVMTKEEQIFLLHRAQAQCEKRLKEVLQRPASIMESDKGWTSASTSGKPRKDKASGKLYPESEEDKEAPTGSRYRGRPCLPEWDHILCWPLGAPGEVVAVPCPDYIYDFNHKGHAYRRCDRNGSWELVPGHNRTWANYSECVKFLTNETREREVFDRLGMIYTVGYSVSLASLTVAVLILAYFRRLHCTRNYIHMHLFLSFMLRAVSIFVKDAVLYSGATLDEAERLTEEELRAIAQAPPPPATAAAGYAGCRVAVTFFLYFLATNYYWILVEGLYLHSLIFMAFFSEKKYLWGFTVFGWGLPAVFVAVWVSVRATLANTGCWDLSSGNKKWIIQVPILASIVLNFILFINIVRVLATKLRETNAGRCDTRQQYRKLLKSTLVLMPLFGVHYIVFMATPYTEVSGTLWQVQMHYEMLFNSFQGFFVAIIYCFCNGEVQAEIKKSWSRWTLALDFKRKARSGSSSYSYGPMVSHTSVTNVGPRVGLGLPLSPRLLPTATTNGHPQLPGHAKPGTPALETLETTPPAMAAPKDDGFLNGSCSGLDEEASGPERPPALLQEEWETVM

T2: mouse PTH1R overexpressed on CHO cells (mouse, UniProt P41593 27-591)
T2 sequence (looked up): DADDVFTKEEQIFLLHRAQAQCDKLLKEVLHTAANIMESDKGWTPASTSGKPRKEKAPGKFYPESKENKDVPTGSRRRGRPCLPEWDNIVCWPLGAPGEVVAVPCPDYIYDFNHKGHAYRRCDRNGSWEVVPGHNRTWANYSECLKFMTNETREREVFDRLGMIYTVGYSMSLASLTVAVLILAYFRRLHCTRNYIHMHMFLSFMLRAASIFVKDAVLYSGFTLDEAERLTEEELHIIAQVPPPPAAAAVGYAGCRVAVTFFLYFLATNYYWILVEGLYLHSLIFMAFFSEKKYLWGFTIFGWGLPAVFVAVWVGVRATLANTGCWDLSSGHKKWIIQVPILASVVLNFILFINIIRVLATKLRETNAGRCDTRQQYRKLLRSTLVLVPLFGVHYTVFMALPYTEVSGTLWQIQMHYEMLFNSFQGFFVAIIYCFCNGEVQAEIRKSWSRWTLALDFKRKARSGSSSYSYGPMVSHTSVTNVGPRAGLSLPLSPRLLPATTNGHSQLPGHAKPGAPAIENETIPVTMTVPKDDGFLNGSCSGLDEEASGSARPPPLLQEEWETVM

T3: rat PTH1R on UMR106 cells (rat, UniProt P25961 27-591)
T3 sequence (looked up): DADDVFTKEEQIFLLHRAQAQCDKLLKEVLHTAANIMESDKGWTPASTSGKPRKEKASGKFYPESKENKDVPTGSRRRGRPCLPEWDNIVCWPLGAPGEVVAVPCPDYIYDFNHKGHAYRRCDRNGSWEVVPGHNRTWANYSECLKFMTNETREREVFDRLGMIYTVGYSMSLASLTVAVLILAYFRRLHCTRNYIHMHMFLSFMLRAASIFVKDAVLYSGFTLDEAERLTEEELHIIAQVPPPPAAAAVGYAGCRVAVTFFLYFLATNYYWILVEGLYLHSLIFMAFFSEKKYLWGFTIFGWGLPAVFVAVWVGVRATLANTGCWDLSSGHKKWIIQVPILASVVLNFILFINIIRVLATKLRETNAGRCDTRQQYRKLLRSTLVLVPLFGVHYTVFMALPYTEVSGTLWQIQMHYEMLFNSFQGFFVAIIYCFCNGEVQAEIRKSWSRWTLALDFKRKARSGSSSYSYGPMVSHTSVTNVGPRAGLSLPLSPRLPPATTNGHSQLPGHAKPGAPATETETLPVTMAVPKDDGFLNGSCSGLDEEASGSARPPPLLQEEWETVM

T4: human PTH1R on Saos-2 cells (endogenous) (human, UniProt Q03431 27-593)
T4 sequence (looked up): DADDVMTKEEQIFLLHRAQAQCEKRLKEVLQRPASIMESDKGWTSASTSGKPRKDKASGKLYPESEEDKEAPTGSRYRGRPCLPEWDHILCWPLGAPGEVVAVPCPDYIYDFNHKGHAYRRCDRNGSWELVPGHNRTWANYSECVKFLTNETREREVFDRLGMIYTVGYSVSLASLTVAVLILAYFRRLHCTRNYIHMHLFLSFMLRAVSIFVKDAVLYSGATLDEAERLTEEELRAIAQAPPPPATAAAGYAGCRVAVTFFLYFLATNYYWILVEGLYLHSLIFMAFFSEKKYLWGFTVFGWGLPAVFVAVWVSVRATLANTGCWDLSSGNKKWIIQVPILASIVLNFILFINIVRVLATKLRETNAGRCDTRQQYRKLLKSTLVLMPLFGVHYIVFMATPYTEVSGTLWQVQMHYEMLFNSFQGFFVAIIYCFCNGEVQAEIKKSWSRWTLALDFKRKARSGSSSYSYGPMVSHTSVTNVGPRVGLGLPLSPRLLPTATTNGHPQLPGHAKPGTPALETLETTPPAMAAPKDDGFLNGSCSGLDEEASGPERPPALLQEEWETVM

T5: recombinant N-terminal extracellular domain of the human PTH1R receptor (human, UniProt Q03431 27-188, limits assumed)
T5 construct: domain: N-terminal extracellular domain; Bought reagent; also called N-ECD PTH1R; PTH1R N-terminal ECD
T5 sequence (looked up): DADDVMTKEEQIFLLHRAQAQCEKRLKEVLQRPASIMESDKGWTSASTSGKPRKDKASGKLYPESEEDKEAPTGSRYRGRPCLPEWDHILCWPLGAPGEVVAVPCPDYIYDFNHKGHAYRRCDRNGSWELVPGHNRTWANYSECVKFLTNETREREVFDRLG

B1: XPA.85.340 (antibody, V domains shown)
VH: EVQLVETGGGVVRPGGSLRLSCAASGFTFSSSAMSWVRQTPGKELQWVSAITPGGEGTYYADVVKGRFTISRDNSKDTLYLQMDSLRAEDTAVYYCARDLYGSYGDAFDIWGQGTLVTVSS
VL: SYVLTQPPSVSVAPGQTASITCSGDNLGEKFVSWYQQKAGQSPVLVIFEDNKRPSGIPERFAGSNSGNRATLTIRGTQAEDEADYYCQAWDSSWVFGGGTQLTVL
notes: Light-chain-shuffled variant of XPA.85.017
B2: XPA.85.337 (antibody, V domains shown)
VH: EVQLVETGGGVVRPGGSLRLSCAASGFTFSSSAMSWVRQTPGKELQWVSAITPGGEGTYYADVVKGRFTISRDNSKDTLYLQMDSLRAEDTAVYYCARDLYGSYGDAFDIWGQGTLVTVSS
VL: SYVLTQPPSVSVAPGQTATITCSGDDFGDKYVSWYQQKPGQSPLLVIFQDNERPSGIPERFSGSNSGNTATLTISGTQAMDEADYYCQAWDSNWVFGGGTKVTVL
notes: as for B1
B3: XPA.85.336 (antibody, V domains shown)
VH: EVQLVETGGGVVRPGGSLRLSCAASGFTFSSSAMSWVRQTPGKELQWVSAITPGGEGTYYADVVKGRFTISRDNSKDTLYLQMDSLRAEDTAVYYCARDLYGSYGDAFDIWGQGTLVTVSS
VL: QSVLTQPPSVSAAPGQKVTISCSGTGSNIGSNYVAWYQQLPGTAPKLLIYDDNKRPSGTPDRFSGSKSGTSATLVIAGLQTGDEADYYCGTWDNTLNVGGVFGGGTQLTVL
notes: as for B1
B4: XPA.85.335 (antibody, V domains shown)
VH: EVQLVETGGGVVRPGGSLRLSCAASGFTFSSSAMSWVRQTPGKELQWVSAITPGGEGTYYADVVKGRFTISRDNSKDTLYLQMDSLRAEDTAVYYCARDLYGSYGDAFDIWGQGTLVTVSS
VL: QSVLTQPPSVSAAPGQRVTISCSGNTSNIGNNFVSWYQQLPGTAPKLLIYDDNKRPSGIPDRFSGSKSGTSATLGISGLQTGDEADYYCGTWDNSLNPPWVFGGGTQLTVL
notes: as for B1
B5: XPA.85.338 (antibody, V domains shown)
VH: EVQLVETGGGVVRPGGSLRLSCAASGFTFSSSAMSWVRQTPGKELQWVSAITPGGEGTYYADVVKGRFTISRDNSKDTLYLQMDSLRAEDTAVYYCARDLYGSYGDAFDIWGQGTLVTVSS
VL: SYELTQPPSVSVAPGQTATITCSGDKLGDKYASWYQQKPGQSPVLVMFENRDRPSGIPDRFSGSNSGNTATLTISGTQAMDEADYYCQAWDSSTAWVFGGGTQLTVL
notes: as for B1

Assays:
[1] = target: T1, human PTH1R overexpressed on CHO cells; assay: cell-based or functional assay
[2] = target: T2, mouse PTH1R overexpressed on CHO cells; assay: cell-based or functional assay
[3] = target: T3, rat PTH1R on UMR106 cells; assay: cell-based or functional assay
[4] = target: T4, human PTH1R on Saos-2 cells (endogenous); assay: cell-based or functional assay
[5] = target: T5, recombinant N-terminal extracellular …; assay: SPR, IgG captured, ECD injected
Protocol: An anti-human IgG-Fc CMS sensor chip (GE Healthcare) was prepared using standard amine coupling as described by the manufacturer's protocol for the capture Ab on a BIACORE 4000 system (GE Healthcare). Briefly, the chip surface was activated with a 10 minute injection at 10 μL/minute of a freshly mixed 1:1 solution of 0.1 M N-Hydroxysuccinimide (NHS) and 0.4 M 1-Ethyl-3-(3-dimethylaminopropyl) carbodiimide hydrochloride (EDC). Following the activation injection, 15 ug/mL anti-human IgG-Fc antibody in acetate pH 4.5 was injected at 10 μL/minute for 10 minutes to achieve a high density capture surface. 7 minutes of 1M Ethanolamine hydrochloride-NaOH pH 8.5 was injected to block the surface. The NHS, EDC, and Ethanolamine used were from the BIACORE Amine Coupling Kit.
Kinetic Analysis was performed using HBS-EP+(Teknova) with 2.5 mg/mL BSA (Sigma Aldrich, St. Louis Mo.). Antibodies were diluted to 0.5 μg/mL and captured to achieve a surface density of 100 to 200 RU. […] Injections were performed at 30 μL/minute for 240 seconds with a 360 second dissociation time. Regeneration was then performed with one 60 second injection 3M MgCl.
The data were analyzed using BIACORE 4000 Evaluation Software and was double referenced by subtracting both the blank flow cell data and the averaged bracketing blank injections. The data was fit by simultaneously fitting the an off-rate (kd) and on-rate (kₐ), and calculating the KD as KD=kd/kₐ.

[6] = target: T1, human PTH1R overexpressed on CHO cells; assay: flow cytometry on CHO cells, 24 hr at 4 C
Protocol: (§1) To characterize antibody binding to PTH1R, cells were labeled with either CellTrace™ CFSE or CellTrace™ Violet. Unlabeled CHOK1 parent, CHO human PTH1R labeled with CellTrace™CFSE, and CHO mouse PTH1R labeled with CellTrace™Violet were pooled together and stained with increasing concentrations of antibody. Antibodies were incubated for 24 hr at 4° C. followed by two washes with FACS Buffer (0.5% BSA, 0.1% NaN3 in DPBS). Cells were then incubated with Allophycocyanin (APC) AffiniPure F(ab′)₂ Fragment Goat Anti-Human IgG (H+L) (Jackson ImmunoResearch, West Grove, Pa.) for 20 minutes at 4° C. Followed by two washes, cells were resuspended in FACS Buffer. Samples were acquired using BD Cytometer (BD Biosciences, San Jose, Calif.) and data were analyzed using FlowJo (FlowJo, LLC, Ashland, Oreg.) and Prism (GraphPad Software, La Jolla, Calif.).

[7] = target: T2, mouse PTH1R overexpressed on CHO cells; assay: flow cytometry on CHO cells, 24 hr at 4 C
Protocol: as §1

Binder | EC50 of PTH(1-34), cAMP assay, with 267 nM IgG [1] | EC50 of PTH(1-34), cAMP assay, with 267 nM IgG [2] | EC50 of PTH(1-34), cAMP assay, with 267 nM IgG [3] | EC50 of PTH(1-34), cAMP assay, with 267 nM IgG [4] | EC50 of PTHrP(1-34), cAMP assay, with 267 nM IgG [4] | Kd [5] | koff [5] | kon [5] | EC50 [6] | EC50 [7]
B1 | 404 pM | 614 pM | 8.1 nM | 4.17 nM | 11.8 nM | 0.75 nM | 0.0011 s⁻¹ | 1.4e+06 M⁻¹ s⁻¹ | 0.167 nM | 0.322 nM
B2 | 107 pM | 219 pM | 2.88 nM | – | 27.1 nM | 0.75 nM | 0.00046 s⁻¹ | 610000 M⁻¹ s⁻¹ | 1.26 nM | 3.27 nM
B3 | 18.1 pM | 144 pM | – | – | 23.6 nM | 17 nM | 0.019 s⁻¹ | 1.1e+06 M⁻¹ s⁻¹ | 0.342 nM | 14.7 nM
B4 | 42.9 pM | 4540 pM | – | – | 6.41 nM | 2.4 nM | 0.0019 s⁻¹ | 800000 M⁻¹ s⁻¹ | 0.265 nM | 0.384 nM
B5 | 244 pM | 1800 pM | 7.86 nM | 32.8 nM | 33 nM | 0.43 nM | 0.00057 s⁻¹ | 1.3e+06 M⁻¹ s⁻¹ | 0.181 nM | 0.68 nM
